Where a chain is given by its changes, count along the chain named. Names and notes keep the numbering of the source.
B1: humanized T84.66 antibody M5A (antibody, V domains shown)
VH: EVQLVESGGGLVQPGGSLRLSCAASGFNIKDTYMHWVRQAPGKGLEWVARIDPANGNSKYADSVKGRFTISADTSKNTAYLQMNSLRAEDTAVYYCAPFGYYVSDYAMAYWGQGTLVTVSS
VL: DIQLTQSPSSLSASVGDRVTITCRAGESVDIFGVGFLHWYQQKPGKAPKLLIYRASNLESGVPSRFSGSGSRTDFTLTISSLQPEDFATYYCQQTNEDPYTFGQGTKVEIK
notes: For the immunoreactivity assay the antibody was labelled with 131I; also called M5A mAb; 131I-M5A
B2: humanized T84.66 antibody M5B (antibody, V domains shown)
VH: B1 VH with A61V, D62P, S63K, V64F, K65Q, F68A
VL: B1 VL
notes: Expressed in NS0 cells as an intact antibody with constant regions of a human IgG and a kappa light chain; For the immunoreactivity assay the antibody was labelled with 131I; also called M5B mAb

Tests used:
[1] = molecular target: T1, carcinoembryonic antigen (CEA) (human, UniProt P06731 35-685, biotinylated with EZ-Link Sulfo-NHS-LC-Biotin for the SPR assay); experiment: SPR, Biacore 1000; biotinylated CEA on SA chip, antibody injected at 3.12-100 nM, bivalent analyte model; KA = kon/koff
T1 construct: Purified CEA; biotinylated and immobilised on a streptavidin chip for SPR, unlabelled in the immunoreactivity assay; also called purified CEA; CEA-biotin
T1 sequence (looked up): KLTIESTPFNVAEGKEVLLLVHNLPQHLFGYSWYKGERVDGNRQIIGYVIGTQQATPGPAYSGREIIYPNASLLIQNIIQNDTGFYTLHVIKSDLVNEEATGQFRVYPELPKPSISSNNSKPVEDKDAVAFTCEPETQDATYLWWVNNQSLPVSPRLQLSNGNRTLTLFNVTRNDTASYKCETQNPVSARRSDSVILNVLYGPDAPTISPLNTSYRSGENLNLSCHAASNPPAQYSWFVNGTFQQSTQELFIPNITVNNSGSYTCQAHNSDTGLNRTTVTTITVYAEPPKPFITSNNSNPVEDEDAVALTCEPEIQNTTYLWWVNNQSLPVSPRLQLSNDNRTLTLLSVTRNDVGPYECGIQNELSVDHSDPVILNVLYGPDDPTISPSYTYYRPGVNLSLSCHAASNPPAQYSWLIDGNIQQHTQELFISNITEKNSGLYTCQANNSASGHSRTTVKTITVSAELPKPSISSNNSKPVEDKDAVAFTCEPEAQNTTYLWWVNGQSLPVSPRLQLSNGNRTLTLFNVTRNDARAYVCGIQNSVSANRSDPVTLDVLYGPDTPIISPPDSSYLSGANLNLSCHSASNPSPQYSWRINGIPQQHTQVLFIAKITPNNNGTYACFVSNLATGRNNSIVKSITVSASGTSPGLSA
Description: (§1) The binding affinity of the antibodies to purified CEA was determined by surface plasmon resonance (SPR) on a Biacore 1000 (Biacore AB, Uppsala, SW). CEA was biotinylated using the EZ-Link Sulfo-NHS-LC-Biotin kit (Pierce, Rockford, Ill.) and immobilized to a SA biosensor chip (Biacore Inc.) in HBS buffer. A series of increasing antibody concentrations (3.12, 6.25, 12.5, 25, 50, and 100 nM) were injected over a low density (175 RU) of the immobilized CEA-biotin for the association and dissociation phase, with regeneration by a single pulse of 6 M GuHCl. The data were analyzed by BIAevaluation (v3.0) software using the bivalent analyte model to calculate the KA=kₒₙ/koff. Antibody concentrations were determined by amino acid analysis.

[2] = molecular target: T1, carcinoembryonic antigen (CEA); experiment: SPR, Biacore 1000; biotinylated CEA on SA chip, antibody injected at 3.12-100 nM, bivalent analyte model
Description: as §1

Binder	Ka [1] [M⁻¹]	koff [2] [s⁻¹]	kon [2] [M⁻¹ s⁻¹]
B1	1.1e+10	3.01e-05	330000
B2	1.9e+10	2.56e-05	488000

Source: patent US20050244333A1 (CITY OF HOPE, published 2005)
